Results published in the supplement of paper PMC9112550, “Optimization of the antimicrobial peptide Bac7 by deep mutational scanning” (BMC Biology, 2022).

What follows are sequences tested on Escherichia coli TOP10 (assay: shrunken log2 fold change of peptide-encoding DNA abundance (4.5 h post-induction vs induction); higher = less antimicrobial activity (less host growth inhibition)). Conditions: time post-induction: 4.5 h; library: site-saturation at positions 5, 18, 19, 20.
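Further: peptides expressed intracellularly from a pBAD plasmid library in pooled LB shake-flask culture, induced with 0.3% L-arabinose, DNA abundance read by NGS, three biological replicates, DESeq2 with apeglm shrinkage.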

Row | Sequence | shrunken log2 fold change
1 | RRIRGRPPRLPRPRPRPPKPPRP | 0.919
2 | RRIRVRPPRLPRPRPRPAKLPRP | 0.139
3 | RRIRTRPPRLPRPRPRPMSFPRP | -0.0183
4 | RRIRVRPPRLPRPRPRPTIHPRP | -0.239
5 | RRIRVRPPRLPRPRPRPQNRPRP | 0.112
6 | RRIRYRPPRLPRPRPRPFPLPRP | -0.109
7 | RRIRWRPPRLPRPRPRPMPQPRP | 0.178
8 | RRIRDRPPRLPRPRPRPQAKPRP | -0.0241
9 | RRIRKRPPRLPRPRPRPVHAPRP | 0.464
10 | RRIRQRPPRLPRPRPRPLGIPRP | -0.381
11 | RRIRQRPPRLPRPRPRPDPKPRP | 0.0129
12 | RRIRKRPPRLPRPRPRPKDAPRP | -0.0585
13 | RRIRFRPPRLPRPRPRPYPEPRP | -0.488
14 | RRIRMRPPRLPRPRPRPETGPRP | 0.321
15 | RRIRNRPPRLPRPRPRPKLGPRP | 0.055
16 | RRIRMRPPRLPRPRPRPAHHPRP | 0.0701
17 | RRIRQRPPRLPRPRPRPIKRPRP | -0.354
18 | RRIRWRPPRLPRPRPRPQMCPRP | 0.349
19 | RRIRARPPRLPRPRPRPAKQPRP | -0.197
20 | RRIRLRPPRLPRPRPRPWGHPRP | 0.105
21 | RRIRYRPPRLPRPRPRPARWPRP | 0.135
22 | RRIRARPPRLPRPRPRPKIDPRP | 0.115
23 | RRIRMRPPRLPRPRPRPHHTPRP | -0.263
24 | RRIRERPPRLPRPRPRPWILPRP | 0.0494
25 | RRIRFRPPRLPRPRPRPKFMPRP | -0.542

Row | Sequence | shrunken log2 fold change
26 | RRIRARPPRLPRPRPRPPMWPRP | 0.805
27 | RRIRERPPRLPRPRPRPHANPRP | -0.332
28 | RRIRTRPPRLPRPRPRPKITPRP | -0.464
29 | RRIRSRPPRLPRPRPRPWVEPRP | -0.214
30 | RRIRFRPPRLPRPRPRPVPWPRP | 0.0558
31 | RRIRYRPPRLPRPRPRPLPPPRP | 0.0954
32 | RRIRERPPRLPRPRPRPDYSPRP | -1.47
33 | RRIRARPPRLPRPRPRPHWRPRP | 0.319
34 | RRIRMRPPRLPRPRPRPMMSPRP | 0.0456
35 | RRIRGRPPRLPRPRPRPNNTPRP | -0.0658
36 | RRIRRRPPRLPRPRPRPFRDPRP | 0.506
37 | RRIRYRPPRLPRPRPRPFDPPRP | -0.199
38 | RRIRWRPPRLPRPRPRPYDMPRP | 0.0118
39 | RRIRCRPPRLPRPRPRPNKHPRP | -0.541
40 | RRIRKRPPRLPRPRPRPQHWPRP | 0.474
41 | RRIRTRPPRLPRPRPRPAQPPRP | 0.00354
42 | RRIRCRPPRLPRPRPRPPMHPRP | 0.183
43 | RRIRIRPPRLPRPRPRPARMPRP | 0.223
44 | RRIRPRPPRLPRPRPRPTPQPRP | 0.497
45 | RRIRARPPRLPRPRPRPLRIPRP | 2.9
46 | RRIRERPPRLPRPRPRPKCQPRP | -0.178
47 | RRIRVRPPRLPRPRPRPDSTPRP | -0.0391
48 | RRIRPRPPRLPRPRPRPSSMPRP | -0.29
49 | RRIRKRPPRLPRPRPRPPYRPRP | -0.17
50 | RRIRVRPPRLPRPRPRPAIQPRP | -0.0625

Row | Sequence | shrunken log2 fold change
51 | RRIRIRPPRLPRPRPRPYCQPRP | -1.1
52 | RRIRPRPPRLPRPRPRPMDPPRP | 0.0118
53 | RRIRNRPPRLPRPRPRPALFPRP | 0.177
54 | RRIRQRPPRLPRPRPRPLQAPRP | 0.0365
55 | RRIRMRPPRLPRPRPRPIESPRP | 0.000778
56 | RRIRGRPPRLPRPRPRPYETPRP | 0.16
57 | RRIRIRPPRLPRPRPRPYWCPRP | 0.0219
58 | RRIRRRPPRLPRPRPRPSDYPRP | -0.185
59 | RRIRVRPPRLPRPRPRPAEKPRP | 0.00294
60 | RRIRKRPPRLPRPRPRPICCPRP | 0.583
61 | RRIRKRPPRLPRPRPRPHIAPRP | -0.415
62 | RRIRTRPPRLPRPRPRPVWLPRP | -0.101
63 | RRIRNRPPRLPRPRPRPPDSPRP | 0.0377
64 | RRIRVRPPRLPRPRPRPHYRPRP | -0.0502
65 | RRIRYRPPRLPRPRPRPMHDPRP | -0.598
66 | RRIRFRPPRLPRPRPRPEGIPRP | 0.00745
67 | RRIRPRPPRLPRPRPRPTCDPRP | 0.052
68 | RRIRKRPPRLPRPRPRPHSHPRP | 0.179
69 | RRIRDRPPRLPRPRPRPYWQPRP | -0.548
70 | RRIRNRPPRLPRPRPRPKHQPRP | 0.124
71 | RRIRRRPPRLPRPRPRPRYRPRP | -0.0166
72 | RRIRERPPRLPRPRPRPAMTPRP | 0.0328
73 | RRIRNRPPRLPRPRPRPTCHPRP | -0.643
74 | RRIRKRPPRLPRPRPRPVYGPRP | -0.0742
75 | RRIRKRPPRLPRPRPRPHDSPRP | -0.0516

Row | Sequence | shrunken log2 fold change
76 | RRIRRRPPRLPRPRPRPDGCPRP | 0.165
77 | RRIRTRPPRLPRPRPRPNIWPRP | 0.682
78 | RRIRDRPPRLPRPRPRPMSNPRP | -0.0263
79 | RRIRQRPPRLPRPRPRPPIGPRP | 2.89
80 | RRIRPRPPRLPRPRPRPFDKPRP | -0.0386
81 | RRIRLRPPRLPRPRPRPMYSPRP | -0.364
82 | RRIRCRPPRLPRPRPRPKQYPRP | -0.629
83 | RRIRKRPPRLPRPRPRPYTMPRP | -0.53
84 | RRIRFRPPRLPRPRPRPESAPRP | 0.428
85 | RRIRPRPPRLPRPRPRPERYPRP | 0.378
86 | RRIRSRPPRLPRPRPRPGKKPRP | -0.0502
87 | RRIRFRPPRLPRPRPRPGLRPRP | 0.23
88 | RRIRKRPPRLPRPRPRPCSYPRP | -0.0348
89 | RRIRNRPPRLPRPRPRPQNCPRP | 0.0292
90 | RRIRTRPPRLPRPRPRPYLCPRP | -0.189
91 | RRIRTRPPRLPRPRPRPWHHPRP | 0.0255
92 | RRIRLRPPRLPRPRPRPDCRPRP | 0.0593
93 | RRIRFRPPRLPRPRPRPSRYPRP | -0.0764
94 | RRIRQRPPRLPRPRPRPGCQPRP | -0.103
95 | RRIRQRPPRLPRPRPRPDNDPRP | -0.0011
96 | RRIRARPPRLPRPRPRPNRNPRP | -0.266
97 | RRIRARPPRLPRPRPRPGAYPRP | 0.249
98 | RRIRQRPPRLPRPRPRPEHLPRP | -0.00142
99 | RRIRERPPRLPRPRPRPWMQPRP | -0.327
100 | RRIRQRPPRLPRPRPRPTNSPRP | -0.225

Row | Sequence | shrunken log2 fold change
101 | RRIRSRPPRLPRPRPRPIGCPRP | -0.144
102 | RRIRHRPPRLPRPRPRPRQAPRP | 0.495
103 | RRIRSRPPRLPRPRPRPGRWPRP | 0.657
104 | RRIRVRPPRLPRPRPRPAKSPRP | -0.112
105 | RRIRIRPPRLPRPRPRPDVGPRP | -0.284
106 | RRIRMRPPRLPRPRPRPACAPRP | 0.837
107 | RRIRGRPPRLPRPRPRPCEYPRP | 0.0669
108 | RRIRVRPPRLPRPRPRPAVQPRP | -0.121
109 | RRIRYRPPRLPRPRPRPRDRPRP | -0.116
110 | RRIRPRPPRLPRPRPRPHVKPRP | -0.013
111 | RRIRQRPPRLPRPRPRPSIYPRP | -0.988
112 | RRIRLRPPRLPRPRPRPSFAPRP | -0.067
113 | RRIRGRPPRLPRPRPRPCKEPRP | -0.0407
114 | RRIRRRPPRLPRPRPRPCVTPRP | -0.0627
115 | RRIRRRPPRLPRPRPRPDSRPRP | 0.0229
116 | RRIRNRPPRLPRPRPRPRNFPRP | -0.132
117 | RRIRVRPPRLPRPRPRPPGHPRP | 0.246
118 | RRIRTRPPRLPRPRPRPVVFPRP | -0.184
119 | RRIRFRPPRLPRPRPRPAVAPRP | 0.196
120 | RRIRKRPPRLPRPRPRPQSPPRP | 0.18
121 | RRIRDRPPRLPRPRPRPGDHPRP | 0.00849
122 | RRIRCRPPRLPRPRPRPLCMPRP | -0.0162
123 | RRIRYRPPRLPRPRPRPRHRPRP | 0.0433
124 | RRIRQRPPRLPRPRPRPENPPRP | 0.0317
125 | RRIRDRPPRLPRPRPRPQLIPRP | 0.0732

Row | Sequence | shrunken log2 fold change
126 | RRIRPRPPRLPRPRPRPEQYPRP | -0.226
127 | RRIRIRPPRLPRPRPRPHRIPRP | 0.0122
128 | RRIRDRPPRLPRPRPRPDARPRP | 1.31
129 | RRIRLRPPRLPRPRPRPKDEPRP | 0.114
130 | RRIRWRPPRLPRPRPRPRRLPRP | 0.474
131 | RRIRQRPPRLPRPRPRPTAWPRP | 0.591
132 | RRIRARPPRLPRPRPRPEWHPRP | 0.381
133 | RRIRERPPRLPRPRPRPPIMPRP | -0.314
134 | RRIRGRPPRLPRPRPRPEDRPRP | 0.23
135 | RRIRCRPPRLPRPRPRPPKSPRP | 0.772
136 | RRIRLRPPRLPRPRPRPFQHPRP | -0.175
137 | RRIRLRPPRLPRPRPRPWNYPRP | -0.43
138 | RRIRNRPPRLPRPRPRPCQNPRP | -0.835
139 | RRIRVRPPRLPRPRPRPHIEPRP | -0.763
140 | RRIRKRPPRLPRPRPRPARCPRP | 0.782
141 | RRIRHRPPRLPRPRPRPYQAPRP | -0.00987
142 | RRIRTRPPRLPRPRPRPEFLPRP | -0.536
143 | RRIRERPPRLPRPRPRPWSGPRP | -0.48
144 | RRIRTRPPRLPRPRPRPIQGPRP | -0.0537
145 | RRIRRRPPRLPRPRPRPEIHPRP | -0.265
146 | RRIRCRPPRLPRPRPRPDIAPRP | 0.38
147 | RRIRQRPPRLPRPRPRPELQPRP | -0.0257
148 | RRIRDRPPRLPRPRPRPNERPRP | 0.141
149 | RRIRRRPPRLPRPRPRPLRCPRP | 0.714
150 | RRIRGRPPRLPRPRPRPNQHPRP | 0.189
